From patent publication US12692524B2, “Sialyltransferases and their use in producing sialylated oligosaccharides” (Chr. Hansen A/S, priority 2017, dated 2026) come the findings set out here.

A short description of assay [1]: In vitro sialylation of LNT by protein extracts, LST-a/-b quantified by LC-MS/MS. In kind it is biochemical. Particulars: for Relative efficacy of sialyltransferases regarding in-vitro production of sialyllacto-N-tetraoses: LST-a / Relative efficacy of sialyltransferases regarding in-vitro production of sialyllacto-N-tetraoses: LST-b: 5 mM LNT, 10 mM CMP-Neu5Ac, 16 hours, LC-MS/MS, relative quantity, n.d.: not detectable. The method, then: Escherichia coli BL21(DE3) harbouring plamids encoding for 100 sialyltransferases were grown at 30° C. in 100 ml shake flasks filled with 20 ml of 2YT medium supplemented with ampicillin 100 μg ml^−1. When the cultures reached an OD600 of 0.1 to 0.3, gene expression was induced by addition of 0.3 mM IPTG and the incubation was continued for 12 to 16 hours. Cells were harvested by centrifugation and mechanically disrupted in a defined volume of 50 mM Tris-HCl pH7.5 using glass beads. The protein extract was kept on ice until the assay started. The in vitro assay was carried out in a total volume of 25 μl including 50 mM Tris-HCl pH7.5, 5 mM MgCl2, 10 mM CMP-Neu5Ac and 5 mM LNT. The assay started with the addition of 3 μl protein extract and continued for 16 hours. Product formation was determined by mass spectrometry.
Mass spectrometry analysis was performed by MRM (multiple reaction monitoring) using a LC Triple-Quadrupole MS detection system. Precursor ions are selected and analyzed in quadrupole 1, fragmentation takes place in the collision cell using argon as CID gas, selection of fragment ions is performed in quadrupole 3. Chromatographic separation of lactose, 3′-Sialyllactose and 6′-Sialyllactose after dilution of culture supernatant 1:100 with H2O (LC/MS Grade), was performed on a XBridge Amide HPLC column (3.5 μm, 2.1×50 mm (Waters, USA) with a XBridge Amide guard cartridge (3.5 μm, 2.1×10 mm) (Waters, USA). Column oven temperature of the HPLC system was 50° C. The mobile phase was composed of acetonitrile:H2O with 10 mM ammonium acetate. A 1 μl sample was injected into the instrument; the run was performed for 3.60 min with a flow rate of 400 μl/min. 3′-Sialyllactose and 6′-Sialyllactose were analyzed by MRM in ESI positive ionization mode. The mass spectrometer was operated at unit resolution. Sialyllactose forms an ion of m/z 656.2 [M+Na]. The precursor ion of Sialyllactose was further fragmented in the collision cell into the fragment ions m/z 612.15, m/z 365.15 and m/z 314.15. Collision energy, Q1 and Q3 Pre Bias were optimized for each analyte individually. Chromatographic separation of lactose, LNT-II, LNT and LST-a or -b after dilution of particle-free biocatalysis-reaction or crude extract, respectively, 1:50 with H2O (LC/MS Grade), was performed on a XBridge Amide HPLC column (3.5 μm, 2.1×50 mm (Waters, USA) with a XBridge Amide guard cartridge (3.5 μm, 2.1×10 mm) (Waters, USA). Column oven was run at 35° C. The mobile phase was composed of acetonitrile:H2O with 0.1% ammonium hydroxide. A 1 μl sample was injected into the instrument; the run was performed for 3.50 min with a flow rate of 300 μl/min. Lactose, LNT-II, LNT as well as LST-a and -b were analyzed by MRM in ESI negative ionization mode. The mass spectrometer was operated at unit resolution. Lactose forms an ion of m/z 341.00 [M−H]. The precursor ion of Lactose was further fragmented in the collision cell into the fragment ions m/z 179.15, m/z 161.15 and m/z 101.05. LNT-II forms an ion of m/z 544.20 [M−H]. The precursor ion of LNT-II was further fragmented into the fragment ions m/z 382.10, m/z 161.00 and m/z 112.90. LNT forms an ion of m/z 706.20 [M−H]. The precursor ion of LNT was further fragmented into the fragment ions m/z 382.10, m/z 202.10 and m/z 142.00. LST-a and -b forms an ion of m/z 997.20 [M−H]. The precursor ion of LST-a and-b was further fragmented into the fragment ions m/z 290.15, m/z 202.15 and m/z 142.15. Collision energy, Q1 and Q3 Pre Bias were optimized for each analyte individually. Quantification methods were established using commercially available standards (Carbosynth, Compton, UK).
Twenty eight genes were identified to produce LST-a whereas only 6 enzymes synthesized LST-b. […] Irrespectively of the protein overexpression level, sialyltransferases that produced best were selected for determination of Km and Vmax.

A short description of assay [2]: In vivo screening in E. coli #1363/#1730 with lactose as acceptor, sialyllactose identified by TLC. In kind it is cell-based, Escherichia coli BL21(DE3). Particulars: for Described activity confirmed in the lactose screening: in words. The method, then:
Escherichia coli BL21(DE3) #1363 and #1730 harbouring plasmids encoding for 100 sialyltransferases were grown at 30° C. in 100 ml shake flasks filled with 20 ml of mineral salts medium (Samain et al., J. Biotech. 1999, 72:33-47) supplemented with 2% (wt/vol) glucose, ampicillin 100 μg ml^−1, kanamycin 15 μg ml^−1 and zeocin 40 μg ml^−1. When the cultures reached an OD600 of 0.1 to 0.3, gene expression was induced by addition of 0.3 mM IPTG. After an incubation for one hour, 1.5 mM lactose was added to #1363 cultures whereas 1.5 mM lactose as well as 1.5 mM sialic acid was added to #1730 cultures. The incubation continued for 72 to 96 hours. Then, cells were harvested by centrifugation and mechanically disrupted in a defined volume using glass beads. Subsequently, samples were applied to thin layer chromatography (TLC) on Silica Gel 60 F254 (Merck KGaA, Darmstadt, Germany). A mixture of butanol:acetone:acetic acid:H2O (35/35/7/23 (v/v/v/v)) was used as mobile phase. For detection of the separated substances, the TLC plate was soaked with thymol reagent (0.5 g thymol solved in 95 ml ethanol, 5 ml sulfuric acid added) and heated.
In the entire screening, thirty two genes were identified to encode for α-2,3-sialyltransferases, thus producing 3′-SL. 19 enzymes synthesized 6′-SL and were depicted as α-2,6-sialyltransferases. An α-2,3- as well as an α-2,6-sialyltransferase activity could only be observed for 3 enzymes. […] The screening appeared highly accurate since the described activities of extensively characterized sialyltransferases, e. g. […] Regarding the product formation, the experimental setting allowed a semi-quantitative comparison of the screened enzymes. But to achieve deeper knowledge about their kinetic properties, the 3 potentially best performing α-2,3- and α-2,6-sialyltransferases were applied to in vitro assays.

B1: SiaT3: sialyltransferase of Campylobacter jejuni strain OH4384, acc. AX934425, SEQ ID NO: 12 (protein, listed as Campylobacter jejuni)
chain: MGKKVIIAGNGPSLKEIDYSRLPNDFDVFRCNQFYFEDKYYLGKKCKAVFYNPILFFEQYYTLKHLIQNQEYETELIMCSNYNQAHLENENFVKTFYDYFPDAHLGYDFFKQLKDFNAYFKFHEIYFNQRITSGVYMCAVAIALGYKEIYLSGIDFYQNGSSYAFDTKQKNLLKLAPNFKNDNSHYIGHSKNTDIKALEFLEKTYKIKLYCLCPNSLLANFIELAPNLNSNFIIQEKNNYTKDILIPSSEAYGKFSKNIN
Regarding B1, in assay [1], the “Relative efficacy of sialyltransferases regarding in-vitro production of sialyllacto-N-tetraoses: LST-a” value (“Relative efficacy … LST-a” for short) is listed as 605.

B2: SiaT4: sialyltransferase of Helicobacter acinonychis, acc. NC_008229, SEQ ID NO: 11 (protein, listed as Heliobacter acinonychis)
chain: MNKKPLIIAGNGPSIKDLDYALFPKDFDVFRCNQFYFEDKYYLGREIKGVFFNAHVFDLQMKITKAIVKNGEYHPDHIYCTHVEPYGYVNGNQQLMQEYLEKHFVGVRSTYAYLKDLEPFFILHSKYRNFYDQHFTTGIMMLLVAIQLGYKEIYLCGIDFYENGFGHFYENQGGFFEEDSDPMHDKNIDIQALELAKKYAKIYALVPNSALVKMIPLSSQKGVLEKVKDRIGLGEFKREKFGQKELERQKELERQKELERQKELERQKELERQKELERQKELERQKELERQKELERQKELERQKELERQKELERQKELERQKELERQKELERQKELELERSLKARLKAVLASKGIRGDNLIIVSLKDTYRLFKGGFALLLDLKALKSIIKAFLKR
As to B2, the “Relative efficacy … LST-a” value in assay [1] was 654.

B3: SiaT1: sialyltransferase of Neisseria meningitidis, acc. U60660, SEQ ID NO: 5 (protein, listed as Neisseria meningitidis)
chain: MGLKKACLTVLCLIVFCFGIFYTFDRVNQGERNAVSLLKEKLFNEEGEPVNLIFCYTILQMKVAERIMAQHPGERFYVVLMSENRNEKYDYYFNQIKDKAERAYFFHLPYGLNKSFNFIPTMAELKVKSMLLPKVKRIYLASLEKVSIAAFLSTYPDAEIKTFDDGTGNLIQSSSYLGDEFSVNGTIKRNFARMMIGDWSIAKTRNASDEHYTIFKGLKNIMDDGRRKMTYLPLFDASELKTGDETGGTVRILLGSPDKEMKEISEKAAKNFKIQYVAPHPRQTYGLSGVTTLNSPYVIEDYILREIKKNPHTRYEIYTFFSGAALTMKDFPNVHVYALKPASLPEDYWLKPVYALFTQSGIPILTFDDKN
Turning to B3, the “Relative efficacy … LST-a” value in assay [1] is 2.98 × 10^3. Besides, the “Described activity to sialylate LNT verified” value in assay [1] (in words) is given as “could be verified”. In assay [2] (1.5 mM lactose, 72 to 96 hours, qualitative via TLC), the “Production of sialyllactose in-vivo” value was 3′-SL. The “Described activity confirmed in the lactose screening” value in assay [2] is “could be confirmed”.

B4: SiaT7: sialyltransferase of Pasteurella dagmatis strain DSM 22969, acc. AFY98851, SEQ ID NO: 7 (protein, listed as Pasteurella dagmatis)
chain: MTIYLDPASLPTLNQLMHFTKESEDKETARIFGFSRFKLPEKITEQYNNIHFVEIKNNRPTEDIFTILDQYPEKLELDLHLNIAHSIQLFHPILQYRFKHPDRISIKSLNLYDDGTMEYVDLEKEENKDIKSAIKKAEKQLSDYLLTGKINFDNPTLARYVWQSQYPVKYHFLSTEYFEKAEFLQPLKTYLAGKYQKMDWSAYEKLSPEQQTFYLKLVGFSDETKQLFHTEQTKFIFTGTTTWEGNTDIREYYAKQQLNLLKHFTHSEGDLFIGDQYKIYFKGHPRGGDINDYILKHAKDITNIPANISFEILMMTGLLPDKVGGVASSLYFSLPKEKISHIIFTSNKKIKNKEDALNDPYVRVMLRLGMIDKSQIIFWDSLKQL
B4: in assay [1], the “Relative efficacy … LST-a” value is given as 2.25 × 10^3.

B5: SiaT5: sialyltransferase of Helicobacter acinonychis, acc. NC_008229, SEQ ID NO: 33 (protein, listed as Heliobacter acinonychis)
chain: MGTIKKPLIIAGNGPSIKDLDYALFPKDFDVFRCNQFYFEDKYYLGREIKGVFFNPCVLSSQMQTVQYLMDNGEYSIERFFCSVSTDRHDFDGDYQTILPVDGYLKAHYPFVCDTFSLFKGHEEILKHVKYHLKTYSKELSAGVLMLLSAVVLGYKEIYLVGIDFGASSWGHFYDESQSQHFSNHMADCHNIYYDMLTICLCQKYAKLYALAPNSPLSHLLTLNPQAKYPFELLDKPIGYTSDLIISSPLEEKLLEFKNIEEKLLEFKNIEEKLLEFKNIEEKLLEFKNIEEKLLEFKNIEEKLLEFKNIEEKLLEFKNIEEKLLEFKNIEEKLLEFKNIEEKLLEFKNIEEKLLEFKNIEEKLLEFKNIEEKLLEFKNIEEKLLASRLNNILRKIKRKILPFFWGGGVTPTLKVSFRWGAA
B5: in assay [1], the “Relative efficacy of sialyltransferases regarding in-vitro production of sialyllacto-N-tetraoses: LST-b” value worked out at 1.

B6: SiaT11: sialyltransferase of Photobacterium damselae JT0160, acc. BAA25316, SEQ ID NO: 31 (protein, listed as Photobacterium damsela)
chain: MKKILTVLSIFILSACNSDNTSLKETVSSNSADVVETETYQLTPIDAPSSFLSHSWEQTCGTPILNESDKQAISFDFVAPELKQDEKYCFTFKGITGDHRYITNTTLTVVAPTLEVYIDHASLPSLQQLIHIIQAKDEYPSNQRFVSWKRVTVDADNANKLNIHTYPLKGNNTSPEMVAAIDEYAQSKNRLNIEFYTNTAHVFNNLPPIIQPLYNNEKVKISHISLYDDGSSEYVSLYQWKDTPNKIETLEGEVSLLANYLAGTSPDAPKGMGNRYNWHKLYDTDYYFLREDYLDVEANLHDLRDYLGSSAKQMPWDEFAKLSDSQQTLFLDIVGFDKEQLQQQYSQSPLPNFIFTGTTTWAGGETKEYYAQQQVNVINNAINETSPYYLGKDYDLFFKGHPAGGVINDIILGSFPDMINIPAKISFEVLMMTDMLPDTVAGIASSLYFTIPADKVNFIVFTSSDTITDREEALKSPLVQVMLTLGIVKEKDVLFWADHKVNSMEVAIDEACTRIIAKRQPTASDLRLVIAIIKTITDLERIGDVAESIAKVALESFSNKQYNLLVSLESLGQHTVRMLHEVLDAFARMDVKAAIEVYQEDDRIDQEYESIVRQLMAHMMEDPSSIPNVMKVMWAARSIERVGDRCQNICEYIIYFVKGKDVRHTKPDDFGTMLD
B6: the “Relative efficacy of sialyltransferases regarding in-vitro production of sialyllacto-N-tetraoses: LST-b” value in assay [1] stood at 13. The “Described activity confirmed in the lactose screening” value in assay [2] is on record as “could be confirmed”.
